Values of other authors as cited in publication PMC8781899.
Where two headings read alike, the source gives them in different places.

Columns and labels:
DR4 (Homo sapiens) [1] = target: DR4 (Homo sapiens) (UniProt O00220)
DR4 (Homo sapiens) [2] = target: DR4 (Homo sapiens) (UniProt O00220); remark: listed apart in the source

Sequence of UniProt O00220 (O00220 24-468): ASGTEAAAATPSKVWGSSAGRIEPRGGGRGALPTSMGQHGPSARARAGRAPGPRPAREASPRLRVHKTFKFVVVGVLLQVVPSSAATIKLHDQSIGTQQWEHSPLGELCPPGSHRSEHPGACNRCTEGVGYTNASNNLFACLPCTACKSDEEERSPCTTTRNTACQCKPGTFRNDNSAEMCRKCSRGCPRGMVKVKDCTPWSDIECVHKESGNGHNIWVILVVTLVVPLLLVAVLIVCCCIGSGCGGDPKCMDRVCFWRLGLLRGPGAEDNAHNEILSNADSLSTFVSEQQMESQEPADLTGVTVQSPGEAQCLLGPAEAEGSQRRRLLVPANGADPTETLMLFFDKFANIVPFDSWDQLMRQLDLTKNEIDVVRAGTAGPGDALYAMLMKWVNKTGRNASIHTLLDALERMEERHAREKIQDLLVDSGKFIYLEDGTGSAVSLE
Sequence of TRAIL (P50591 whole entry): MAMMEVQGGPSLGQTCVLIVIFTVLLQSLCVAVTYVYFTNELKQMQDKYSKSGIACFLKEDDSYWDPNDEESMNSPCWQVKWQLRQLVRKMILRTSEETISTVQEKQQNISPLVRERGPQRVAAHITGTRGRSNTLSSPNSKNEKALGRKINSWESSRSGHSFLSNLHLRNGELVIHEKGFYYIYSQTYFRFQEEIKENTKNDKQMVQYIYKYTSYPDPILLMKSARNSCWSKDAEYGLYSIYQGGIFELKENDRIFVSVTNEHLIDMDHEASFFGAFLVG

Kd (DR4 (Homo sapiens) [1]) [nM] | Kd (DR4 (Homo sapiens) [2]) [nM] | Substance
2.9 | – | TRAIL D269H/E195R (DHER) (from UniProt P50591)
– | 0.17 | TRAIL (from UniProt P50591)
